Laboratory results: paper PMC4351601, “Structural basis for self-assembly of a cytolytic pore lined by protein and lipid” (Nature Communications, 2015)
Where a chain is given by its changes, count along the chain named. Numbers in names are those of the source.

B1: FraC mutein V60E/W149A (natural protein)
chain: SADVAGAVIDGAGLGFDVLKTVLEALGNVKRKIAVGIDNESGKTWTAMNTYFRSGTSDIELPHKVAHGKALLYNGQKNRGPVATGVVGVIAYSMSDGNTLAVLFSVPYDYNWYSNWWNVRVYKGQKRADQRMYEELYYHRSPFRGDNGAHSRGLGYGLKSRGFMNSSGHAILEIHVTKA
B2: fragaceatoxin C (FraC), wild type (natural protein)
chain: B1 chain with E60V, A149W
notes: no tag is mentioned; also called water-soluble FraC; monomeric FraC; source: E. coli BL21 (DE3), purified (Resource S cation exchange, Superdex 75 SEC)
B3: FraC mutein V8C/K69C, oxidised (engineered disulfide bond between the N-terminal and beta-core regions) (natural protein)
chain: B1 chain with V8C, E60V, K69C, A149W

Key:
[1] = target: the molecule itself; test: cell-based or functional assay
[2] = target: the molecule itself; test: crystal structure; dimeric form (assembly intermediate); crystals with 100 mM POC, 3 mM DDM, 200 mM Li2SO4, PEG 8,000, sodium acetate pH 4.1-4.3; two crystal forms, 1.57 and 1.60 Å
[3] = target: the molecule itself; test: crystal structure; transmembrane pore; water-soluble FraC incubated with lipid vesicles, solubilised and purified in detergent (DDM 0.015%), crystallised by the lipid sponge phase method, 20 °C; 3.1 Å; 24 bound lipids modelled as SM

Protein | haemolytic activity (horse erythrocytes), relative to wild-type FraC [1] | stoichiometry N [2] | stoichiometry N [3]
B1 | ~16 % of wild type |  | 
B2 |  | 2 | 8
B3 | 1 % of wild type |  | 
